Publication PMC9828152

Molecular target: Sp1 (specific protein 1) (UniProt P08047)
Assay: anti-Flag co-IP, Sp1 blot
Settings: reference: Ets1 WT-Flag; sites Y283

binding against the reference: weaker
Substance: Ets1 (human E26 transcription factor 1) (from UniProt P14921) Ets1 Y283F-Flag
